Source: paper PMC7314397 (Protein Science : A Publication of the Protein Society, 2020)

T1: Homo sapiens NCBD (nuclear coactivator binding domain) from CREBBP (Homo sapiens (human), UniProt Q92793 2061-2109)
T1 chain: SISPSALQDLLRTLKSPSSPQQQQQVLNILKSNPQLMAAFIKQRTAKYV


Columns and labels:
Experiment in all cases: ITC
[1] = biological target: Petromyzon marinus NCBD (nuclear coactivator binding domain of CREBBP/p300) (Petromyzon marinus (sea lamprey))
[2] = biological target: Strongylocentrotus purpuratus NCBD (nuclear coactivator binding domain of CREBBP/p300) (Strongylocentrotus purpuratus (purple sea urchin))
[3] = biological target: Homo sapiens NCBD (nuclear coactivator binding domain) from CREBBP (Homo sapiens (human)) (UniProt Q92793)
[4] = biological target: T1, Homo sapiens NCBD (nuclear coactivator …)

Molecule | Kd [1] [nM] | Kd [2] [nM] | also measured
Petromyzon marinus CID, from the first of the two NCOA proteins (domain or fragment) | 200 | – | –
Strongylocentrotus purpuratus CID (CREBBP-binding domain of NCOA) (domain or fragment) | – | 7000 to 22000 | Kd [3]: 4800 nM; stoichiometry N [2]: 1.7
EGQSDERALLDQLHTLLSNTDATGLEEIDRALGIPELVNQGQ (domain or fragment, Homo sapiens (human)) [Homo sapiens CID (CREBBP-binding domain) from NCOA3 (ACTR)] | – | – | Kd [4]: 400 nM

More lines, main results first:

Kd [1] [nM] | Kd [2] [nM] | Molecule | also measured
– | 13000 | Homo sapiens CID (CREBBP-binding domain) from NCOA3 (ACTR) (from UniProt Q9Y6Q9 1045-1086) (domain or fragment) | –
200 | – | Petromyzon marinus CID, from the second of the two NCOA proteins (domain or fragment) | –
